Test results from patent US20070020327A1.
One block for each binder: values may come before it.

Tests used:
HLA-A*0201 (human) [1] = test: competitive inhibition of 125I-labelled standard peptide binding to purified HLA, gel filtration; ratio = IC50 standard / IC50 test peptide
HLA-A*0201 (human) [2] = test: competition with 125I-labelled standard peptide 941.01 for purified HLA, gel filtration; details: scale: ratio
HLA-A*0201 (human) [3] = test: inhibition of 125I-labelled standard peptide binding to purified HLA-A*0201, gel filtration
HLA-A*0201 (human) [4] = test: competition with 125I-labelled standard peptide for purified HLA, gel filtration; details: for binding affinity ratio: scale: ratio
[5] = remark: other sources report otherwise

Binder: GAVEPDRYVI (modifications not checked)
binding affinity ratio (HLA-A*0201 (human) [2]): 0.0002

Binder: WIKDTIVA (modifications not checked) [WIKDTIVA (PSA, position 248, 8 amino acids)]
binding affinity ratio (HLA-A*0201 (human) [2]): 0.0001

Binder: CIRNKSVI (modifications not checked) [CIRNKSVI (PSA, position 62)]
binding affinity ratio (IC50 of standard peptide / IC50 of test peptide) (HLA-A*0201 (human) [3]): 0.0001

Binder: SVELAHYDV (modifications not checked) [PSM peptide … (position 107, 9 amino acids)]
binding affinity ratio (HLA-A*0201 (human) [4]): 0.0001

Binder: GAAVVHEIV (modifications not checked) [PSM peptide … (position 391)]
binding affinity ratio (HLA-A*0201 (human) [2]): 0.0002

Binder: GAAPLILSRI (modifications not checked) [PSA peptide … (position 12)]
binding affinity ratio (HLA-A*0201 (human) [2]): 0.0005

Binder: PLYDMSLL (modifications not checked) [PSA 95 PLYDMSLL]
binding affinity ratio (IC50 of standard peptide / IC50 of test peptide) (HLA-A*0201 (human) [4]): 0.0002

Binder: SLLKNRFL (modifications not checked) [PSA peptide SLLKNRFL (position 100, 8 amino acids)]
binding affinity ratio (HLA-A*0201 (human) [4]): 0.002

Binder: GAVEPDRYV (modifications not checked)
binding affinity ratio (HLA-A*0201 (human) [2]): 0.0001

Binder: SVELAHYDVL (modifications not checked) [PSM peptide … (position 107, 10 amino acids)]
binding affinity ratio (HLA-A*0201 (human) [4]): 0.0002

Binder: WIGAAPLI (modifications not checked) [WIGAAPLI (PSA, position 10, 8 amino acids)]
binding affinity ratio (HLA-A*0201 (human) [2]): 0.0005

Binder: VVFLTLSV (modifications not checked) [VVFLTLSV (PSA, position 1, 8 amino acids)]
binding affinity ratio (HLA-A*0201 (human) [2]): 0.0002

Binder: SIINEDGNEI (modifications not checked) [PSM peptide … (position 129, 10 amino acids)]
binding affinity ratio (HLA-A*0201 (human) [4]): 0.0001

Binder: GIDPQSGAAV (modifications not checked) [PSM peptide … (position 385)]
binding affinity ratio (HLA-A*0201 (human) [2]): 0.0002

Binder: VLVHPQWV (modifications not checked) [VLVHPQWV (PSA, position 49)]
binding affinity ratio (HLA-A*0201 (human) [1]): 0.0001

Binder: PLVCNGVLQGI (modifications not checked) [PSA 212 …]
binding affinity ratio (IC50 of standard peptide / IC50 of test peptide) (HLA-A*0201 (human) [4]): 0.002

Binder: SVTWIGAA (modifications not checked) [PSA peptide SVTWIGAA (position 7, 8 amino acids)]
binding affinity ratio (HLA-A*0201 (human) [4]): 0.0001

Binder: FTVQAAAETL (modifications not checked) [PSM peptide … (position 737)]
binding affinity ratio (HLA-A*0201 (human) [2]): 0.0001

Binder: SLSLGFLFL (modifications not checked) [PAP peptide … (position 13, 9 amino acids)]
binding affinity ratio (HLA-A*0201 (human) [4]): 0.02

Binder: VLVHPQWV (modifications not checked) [VLVHPQWV (Kallikrein, position 53)]
binding affinity ratio (HLA-A*0201 (human) [1]): 0.0001

Binder: PLVCNGVLQGI (modifications not checked) [Kallikrein 216 …]
binding affinity ratio (IC50 of standard peptide / IC50 of test peptide) (HLA-A*0201 (human) [4]): 0.002

Binder: PLYHSVYET (modifications not checked) [PSM 550 …]
binding affinity ratio (IC50 of standard peptide / IC50 of test peptide) (HLA-A*0201 (human) [4]): 0.0002

Binder: SLVHNLTKEL (modifications not checked) [PSM peptide … (position 472, 10 amino acids)]
binding affinity ratio (HLA-A*0201 (human) [4]): 0.0002

Binder: VLSIALSVGCT (modifications not checked) [… (Kallikrein, position 5)]
binding affinity ratio (HLA-A*0201 (human) [1]): 0.0002

Binder: PMFKYHLTVA (modifications not checked) [PSM 568 …]
binding affinity ratio (IC50 of standard peptide / IC50 of test peptide) (HLA-A*0201 (human) [4]): 0.0005

Binder: AVCGGVLV (modifications not checked) [AVCGGVLV (PSA, position 44)]
binding affinity ratio (IC50 of standard peptide / IC50 of test peptide) (HLA-A*0201 (human) [3]): 0.0003

Binder: SLFSAVKNFT (modifications not checked) [PSM peptide … (position 631, 10 amino acids)]
binding affinity ratio (HLA-A*0201 (human) [4]): 0.001

Binder: VISNDVCA (modifications not checked) [VISNDVCA (PSA, position 174)]
binding affinity ratio (HLA-A*0201 (human) [1]): 0.0001

Binder: GIWSKVYDPL (modifications not checked) [PAP peptide … (position 204)]
binding affinity ratio (HLA-A*0201 (human) [2]): 0.0002

Binder: VLTAAHCI (modifications not checked) [VLTAAHCI (PSA, position 56)]
binding affinity ratio (HLA-A*0201 (human) [1]): 0.0001

Binder: STQKVKMHI (modifications not checked) [PSM peptide … (position 338, 9 amino acids)]
binding affinity ratio (HLA-A*0201 (human) [4]): 0.0001

Binder: GITSWGSEPCA (modifications not checked) [PSA peptide … (position 221)]
binding affinity ratio (HLA-A*0201 (human) [2]): 0.0001

Binder: SVILLGRHSL (modifications not checked) [PSA peptide … (position 67, 10 amino acids)]
binding affinity ratio (HLA-A*0201 (human) [4]): 0.0001

Binder: SMKHPQEMKT (modifications not checked) [PSM peptide … (position 615, 10 amino acids)]
binding affinity ratio (HLA-A*0201 (human) [4]): 0.0001

More lines, now with the values ahead:

binding affinity ratio (HLA-A*0201 (human) [1]): 0.0003
Binder: VILLGRHSL (modifications not checked) [… (PSA, position 68)]

binding affinity ratio (HLA-A*0201 (human) [2]): 0.0001
Binder: WAEENSRLL (modifications not checked) [… (PSM, position 434, 9 amino acids)]

binding affinity ratio (HLA-A*0201 (human) [1]): 0.0001
Binder: VLVHPQWVLT (modifications not checked) [… (PSA, position 49), listing 1 of 2 here]

binding affinity ratio (IC50 of standard peptide / IC50 of test peptide) (HLA-A*0201 (human) [3]): 0.0001
Binder: CAQVHPQKVT (modifications not checked)

binding affinity ratio (HLA-A*0201 (human) [1]): 0.0001
Binder: VLRMMNDQL (modifications not checked)

binding affinity ratio (HLA-A*0201 (human) [2]; [5]): 0.0008
Binder: WVLTAAHCI (modifications not checked) [… (PSA, position 55, 9 amino acids)]

binding affinity ratio (IC50 of standard peptide / IC50 of test peptide) (HLA-A*0201 (human) [3]): 0.0002
Binder: ATQIPSYKKL (modifications not checked) [… (PAP, position 274)]

binding affinity ratio (HLA-A*0201 (human) [2]): 0.0008
Binder: VVFLTLSVT (modifications not checked) [… (PSA, position 1, 9 amino acids)]

binding affinity ratio (HLA-A*0201 (human) [1]): 0.02
Binder: VLVHPQWVL (modifications not checked) [… (Kallikrein, position 53), listing 1 of 2 here]

binding affinity ratio (HLA-A*0201 (human) [2]; [5]): 0.0008
Binder: VTEFMLCAGL (modifications not checked) [… (Kallikrein, position 192, 10 amino acids)]

binding affinity ratio (HLA-A*0201 (human) [2]): -0.0001
Binder: WAHCGGVLV (modifications not checked) [… (Kallikrein, position 47, 9 amino acids)]

binding affinity ratio (HLA-A*0201 (human) [1]): 0.0003
Binder: VLRMMNDQLM (modifications not checked)

binding affinity ratio (HLA-A*0201 (human) [2]): 0.0002
Binder: WATEDTMTKL (modifications not checked) [… (PAP, position 226, 10 amino acids)]

binding affinity ratio (HLA-A*0201 (human) [1]): 0.02
Binder: VLVHPQWVL (modifications not checked) [… (PSA, position 49), listing 2 of 2 here]

binding affinity ratio (HLA-A*0201 (human) [1]): 0.0001
Binder: VATARRPRWL (modifications not checked) [… (PSM, position 12)]

binding affinity ratio (HLA-A*0201 (human) [1]): 0.0002
Binder: VLRKYADKI (modifications not checked) [… (PSM, position 603)]

binding affinity ratio (IC50 of standard peptide / IC50 of test peptide) (HLA-A*0201 (human) [3]; [5]): 0.0002
Binder: CALPEKPAV (modifications not checked) [… (Kallikrein, position 234)]

binding affinity ratio (HLA-A*0201 (human) [2]): 0.0019
Binder: VTWIGAAPLI (modifications not checked) [… (PSA, position 8, 10 amino acids)]

binding affinity ratio (IC50 of standard peptide / IC50 of test peptide) (HLA-A*0201 (human) [3]): 0.0001
Binder: CALPERPSL (modifications not checked) [… (PSA, position 230)]

binding affinity ratio (IC50 of standard peptide / IC50 of test peptide) (HLA-A*0201 (human) [3]): 0.0003
Binder: CIRNKSVIL (modifications not checked) [… (PSA, position 62)]

binding affinity ratio (HLA-A*0201 (human) [1]): 0.0001
Binder: VAYINADSSI (modifications not checked) [… (PSM, position 447)]

binding affinity ratio (HLA-A*0201 (human) [2]): 0.0001
Binder: VVLRKYADKI (modifications not checked) [… (PSM, position 602, 10 amino acids)]

binding affinity ratio (HLA-A*0201 (human) [2]): 0.011
Binder: VTWIGAAPL (modifications not checked) [… (PSA, position 8, 9 amino acids)]

binding affinity ratio (IC50 of standard peptide / IC50 of test peptide) (HLA-A*0201 (human) [3]): 0.0002
Binder: CAQVHPQKV (modifications not checked)

binding affinity ratio (HLA-A*0201 (human) [2]): 0.0005
Binder: WIGAAPLIL (modifications not checked) [… (PSA, position 10, 9 amino acids)]

binding affinity ratio (HLA-A*0201 (human) [1]; [5]): 0.0008
Binder: VISNDVCAQV (modifications not checked) [… (PSA, position 174)]

binding affinity ratio (IC50 of standard peptide / IC50 of test peptide) (HLA-A*0201 (human) [3]): 0.0001
Binder: AVKVMDLPT (modifications not checked) [… (PSA, position 131)]

binding affinity ratio (IC50 of standard peptide / IC50 of test peptide) (HLA-A*0201 (human) [3]): 0.0001
Binder: AVEPDRYVI (modifications not checked)

binding affinity ratio (HLA-A*0201 (human) [1]): 0.0001
Binder: VMDLPTQEPA (modifications not checked) [… (PSA, position 134)]

binding affinity ratio (HLA-A*0201 (human) [1]): 0.0008
Binder: VLVNEILNHM (modifications not checked) [… (PAP, position 262)]

binding affinity ratio (HLA-A*0201 (human) [1]): 0.0001
Binder: VLVHPQWVLT (modifications not checked) [… (Kallikrein, position 53), listing 2 of 2 here]

binding affinity ratio (HLA-A*0201 (human) [1]): 0.0002
Binder: VIGTLRGAV (modifications not checked) [… (PSM, position 358)]

binding affinity ratio (HLA-A*0201 (human) [1]): 0.0003
Binder: VLVASRGRAV (modifications not checked)

binding affinity ratio (HLA-A*0201 (human) [1]): 0.0001
Binder: VLVASRGRA (modifications not checked)

binding affinity ratio (HLA-A*0201 (human) [1]): 0.0002
Binder: VLLSYPNKT (modifications not checked) [… (PSM, position 115)]

binding affinity ratio (IC50 of standard peptide / IC50 of test peptide) (HLA-A*0201 (human) [3]): 0.0002
Binder: AVEPDRYVIL (modifications not checked)
